Test results as given in patent publication US20250152742A1, “COMPOSITIONS AND METHODS FOR NEUROLOGICAL DISEASES” (Trames Bio, Inc., priority 2022, published 2025).

Test system: engineered chimeric receptor SEQ ID NO: 33 and its mutants (human α7-nAChR ligand binding domain / human GlyRα1 ion pore domain) in Lenti-X 293T cells
Experiment: YFP fluorescence quenching anion reporter plate reader assay (percent quench, EC50)
Type: cell-based
Settings: for YFP fluorescence quenching using CNL001 (percent quench): receptor named in row; for YFP fluorescence quenching using Facinicline, 30 nM fac: ligand Facinicline 30 nM; for YFP fluorescence quenching using Facinicline, 300 nM fac: ligand Facinicline 300 nM; for YFP fluorescence quenching using Facinicline, 30 uM fac: ligand Facinicline 30 uM; for YFP fluorescence quenching using TC-6987, 1 uM tc6987: ligand TC-6987 1 uM; for YFP fluorescence quenching using TC-6987, 10 uM tc6987: ligand TC-6987 10 uM; for YFP fluorescence quenching using TC-6987, 500 uM tc6987: ligand TC-6987 500 uM; for YFP fluorescence quenching using Varenicline, 3 nM var: ligand Varenicline 3 nM; for YFP fluorescence quenching using Varenicline, 30 nM var: ligand Varenicline 30 nM; for YFP fluorescence quenching using Varenicline, 300 nM var: ligand Varenicline 300 nM; for YFP fluorescence quenching using Varenicline, 500 nM var: ligand Varenicline 500 nM; for YFP fluorescence quenching using Varenicline, 1 uM var: ligand Varenicline 1 uM
How it was run: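 Lenti-X 293T cells co-expressing an anion-quenchable YFP were transiently transfected with receptor DNA, then ligand was added in NaI-substituted buffer (pH 7.2) after 30 min at 37 °C. Fluorescence was read about 2 min; percent quench = mean of last 10 s over 15 s pre-ligand baseline.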

[1] = 1 nM CNL001, first column so headed
[2] = 1 nM CNL001, second column so headed
[3] = 3 nM brd (TC-5619/Bradanicline)
[4] = 10 nM CNL001, first column so headed
[5] = 10 nM CNL001, second column so headed
[6] = 30 nM brd (TC-5619/Bradanicline)
[7] = 50 nM CNL001, first column so headed
[8] = 50 nM CNL001, second column so headed
[9] = 100 nM CNL001, first column so headed
[10] = 100 nM CNL001, second column so headed
[11] = 300 nM brd (TC-5619/Bradanicline)
[12] = 1 uM CNL001, first column so headed
[13] = 1 uM CNL001, second column so headed

B1: CODA342: engineered receptor: L131R in SEQ ID NO: 33 (protein)
chain: MRCSPGGVWLALAASLLHVSLQGEFQRKLYKELVKNYNPLERPVANDSQPLTVYFSLSLLQIMDVDEKNQVLTTNIWLQMSWTDHYLQWNVSEYPGVKTVRFPDGQIWKPDILLYNSADERFDATFHTNVRVNSSGHCQYLPPGIFKSSCPMDLKNFPMDVQTCKLKFGSWSYGGWSLDLQMQEADISGYIPNGEWDLVGIPGKRSERFYECCKEPYPDVTFTVTMRRRMGYYLIQMYIPSLLIVILSWISFWINMDAAPARVGLGITTVLTMTTQSSGSRASLPKVSYVKAIDIWMAVCLLFVFSALLEYAAVNFVSRQHKELLRFRRKRRHHKSPMLNLFQEDEAGEGRFNFSAYGMGPACLQAKDGISVKGANNSNTTNPPPAPSKSPEEMRKLFIQRAKKIDKISRIGFPMAFLIFNMFYWIIYKIVRREDVHNQ
modifications: synthetic sequence of chimeric LGIC
YFP fluorescence quenching using CNL001 (percent quench) [1]: 23.532% | YFP fluorescence quenching using CNL001 (percent quench) [2]: 26.054% | YFP fluorescence quenching using TC-5619/Bradanicline (percent quench) (1 nM brd (TC-5619/Bradanicline)): −7.83% | YFP fluorescence quenching using TC-5619/Bradanicline (percent quench) [3]: −12.89% | YFP fluorescence quenching using CNL001 (percent quench) [4]: 43.69% | YFP fluorescence quenching using CNL001 (percent quench) [5]: 54.016% | YFP fluorescence quenching using TC-5619/Bradanicline (percent quench) (10 nM brd (TC-5619/Bradanicline)): −10.47% | YFP fluorescence quenching using TC-6683 (percent quench) (30 nM TC-6683): −16.26% | YFP fluorescence quenching using TC-5619/Bradanicline (percent quench) [6]: 59.48% | YFP fluorescence quenching using CNL001 (percent quench) [7]: 59.955% | YFP fluorescence quenching using CNL001 (percent quench) [8]: 56.091% | YFP fluorescence quenching using ABT-126 (percent quench) (50 nM abt (ABT-126)): −18.14% | YFP fluorescence quenching using CNL001 (percent quench) [9]: 64.536% | YFP fluorescence quenching using CNL001 (percent quench) [10]: 58.987% | YFP fluorescence quenching (percent quench) (100 nM CNL002): −17.2% | YFP fluorescence quenching using ABT-126 (percent quench) (100 nM abt (ABT-126)): −18.14% | YFP fluorescence quenching using AZD-0328 (percent quench) (100 nM azd0328): 1.79% | YFP fluorescence quenching using TC-5619/Bradanicline (percent quench) (100 nM brd (TC-5619/Bradanicline)): 70.19% | YFP fluorescence quenching using TC-6683 (percent quench) (300 nM TC-6683): −22.45% | YFP fluorescence quenching using ABT-126 (percent quench) (300 nM abt (ABT-126)): −0.81% | YFP fluorescence quenching using AZD-0328 (percent quench) (300 nM azd0328): 66.58% | YFP fluorescence quenching using TC-5619/Bradanicline (percent quench) [11]: 75.11% | YFP fluorescence quenching using ABT-126 (percent quench) (500 nM abt (ABT-126)): 23.29% | YFP fluorescence quenching using CNL001 (percent quench) [12]: 65.987% | YFP fluorescence quenching using CNL001 (percent quench) [13]: 64.312% | YFP fluorescence quenching (percent quench) (1 uM CNL002): 8.12% | YFP fluorescence quenching using ABT-126 (percent quench) (1 uM abt (ABT-126)): 45.76% | YFP fluorescence quenching using TC-5619/Bradanicline (percent quench) (1 uM brd (TC-5619/Bradanicline)): 77.42% | YFP fluorescence quenching using TC-6683 (percent quench) (3 uM TC-6683): −13.48% | YFP fluorescence quenching using ABT-126 (percent quench) (3 uM abt (ABT-126)): 53.03% | YFP fluorescence quenching using ABT-126 (percent quench) (10 uM abt (ABT-126)): 64.08% | YFP fluorescence quenching (percent quench) (10 uM ach (acetylcholine)): −2.57% | YFP fluorescence quenching (percent quench) (30 uM CNL002): 57.24% | YFP fluorescence quenching using TC-6683 (percent quench) (30 uM TC-6683): −12.68% | YFP fluorescence quenching using ABT-126 (percent quench) (30 uM abt (ABT-126)): 71.98% | YFP fluorescence quenching using AZD-0328 (percent quench) (30 uM azd0328): 80.55% | YFP fluorescence quenching using ABT-126 (percent quench) (50 uM abt (ABT-126)): 73.98% | YFP fluorescence quenching using TC-6683 (percent quench) (100 uM TC-6683): −10.33% | YFP fluorescence quenching using ABT-126 (percent quench) (100 uM abt (ABT-126)): 73.51% | YFP fluorescence quenching (percent quench) (100 uM ach (acetylcholine)): −3.18% | YFP fluorescence quenching (percent quench) (1 mM ach (acetylcholine)): 78.98% | YFP fluorescence quenching (percent quench) (3 mM ach (acetylcholine)): 75.75% | YFP fluorescence quenching using Facinicline, 30 nM fac: −6.2 | YFP fluorescence quenching using Facinicline, 300 nM fac: 76.75 | YFP fluorescence quenching using Facinicline, 10 uM fac (ligand Facinicline 10 uM): 82.16 | YFP fluorescence quenching using Facinicline, 30 uM fac: 81.71 | YFP fluorescence quenching using TC-6987, 1 uM tc6987: 2.51 | YFP fluorescence quenching using TC-6987, 10 uM tc6987: 46.22 | YFP fluorescence quenching using TC-6987, 500 uM tc6987: 68.33 | YFP fluorescence quenching using Varenicline, 3 nM var (first column): 0.271 | YFP fluorescence quenching using Varenicline, 3 nM var (second column): −3.613 | YFP fluorescence quenching using Varenicline, 30 nM var (first column): −4.935 | YFP fluorescence quenching using Varenicline, 30 nM var (second column): −4.363 | YFP fluorescence quenching using Varenicline, 300 nM var (first column): 0.282 | YFP fluorescence quenching using Varenicline, 300 nM var (second column): 2.32 | YFP fluorescence quenching using Varenicline, 500 nM var (first column): 23.777 | YFP fluorescence quenching using Varenicline, 500 nM var (second column): 18.376 | YFP fluorescence quenching using Varenicline, 1 uM var (first column): 66.17 | YFP fluorescence quenching using Varenicline, 1 uM var (second column): 66.088

B2: CODA337: engineered receptor: L131N in SEQ ID NO: 33 (protein)
chain: MRCSPGGVWLALAASLLHVSLQGEFQRKLYKELVKNYNPLERPVANDSQPLTVYFSLSLLQIMDVDEKNQVLTTNIWLQMSWTDHYLQWNVSEYPGVKTVRFPDGQIWKPDILLYNSADERFDATFHTNVNVNSSGHCQYLPPGIFKSSCPMDLKNFPMDVQTCKLKFGSWSYGGWSLDLQMQEADISGYIPNGEWDLVGIPGKRSERFYECCKEPYPDVTFTVTMRRRMGYYLIQMYIPSLLIVILSWISFWINMDAAPARVGLGITTVLTMTTQSSGSRASLPKVSYVKAIDIWMAVCLLFVFSALLEYAAVNFVSRQHKELLRFRRKRRHHKSPMLNLFQEDEAGEGRFNFSAYGMGPACLQAKDGISVKGANNSNTTNPPPAPSKSPEEMRKLFIQRAKKIDKISRIGFPMAFLIFNMFYWIIYKIVRREDVHNQ
modifications: synthetic sequence of chimeric LGIC
YFP fluorescence quenching using CNL001 (percent quench) [1]: 76.917% | YFP fluorescence quenching using CNL001 (percent quench) [2]: 79.554% | YFP fluorescence quenching using TC-5619/Bradanicline (percent quench) [3]: 71.02% | YFP fluorescence quenching using CNL001 (percent quench) [4]: 79.479% | YFP fluorescence quenching using CNL001 (percent quench) [5]: 79.506% | YFP fluorescence quenching using TC-6683 (percent quench) (30 nM TC-6683): −11.51% | YFP fluorescence quenching using TC-5619/Bradanicline (percent quench) [6]: 78.43% | YFP fluorescence quenching using CNL001 (percent quench) [7]: 81.465% | YFP fluorescence quenching using CNL001 (percent quench) [8]: 81.297% | YFP fluorescence quenching using ABT-126 (percent quench) (50 nM abt (ABT-126)): −11.64% | YFP fluorescence quenching using CNL001 (percent quench) [9]: 82.619% | YFP fluorescence quenching using CNL001 (percent quench) [10]: 81.722% | YFP fluorescence quenching (percent quench) (100 nM CNL002): 76.37% | YFP fluorescence quenching using ABT-126 (percent quench) (100 nM abt (ABT-126)): 34.79% | YFP fluorescence quenching using AZD-0328 (percent quench) (100 nM azd0328): 82.1% | YFP fluorescence quenching using TC-6683 (percent quench) (300 nM TC-6683): −13.17% | YFP fluorescence quenching using ABT-126 (percent quench) (300 nM abt (ABT-126)): 60.08% | YFP fluorescence quenching using AZD-0328 (percent quench) (300 nM azd0328): 82.52% | YFP fluorescence quenching using TC-5619/Bradanicline (percent quench) [11]: 77.12% | YFP fluorescence quenching using CNL001 (percent quench) [12]: 81.96% | YFP fluorescence quenching using CNL001 (percent quench) [13]: 81.773% | YFP fluorescence quenching (percent quench) (1 uM CNL002): 80.18% | YFP fluorescence quenching using ABT-126 (percent quench) (1 uM abt (ABT-126)): 65.99% | YFP fluorescence quenching using TC-6683 (percent quench) (3 uM TC-6683): −5.46% | YFP fluorescence quenching (percent quench) (10 uM ach (acetylcholine)): 28.32% | YFP fluorescence quenching (percent quench) (30 uM CNL002): 80.93% | YFP fluorescence quenching using TC-6683 (percent quench) (30 uM TC-6683): 8.53% | YFP fluorescence quenching using AZD-0328 (percent quench) (30 uM azd0328): 82.32% | YFP fluorescence quenching using TC-6683 (percent quench) (100 uM TC-6683): 14.41% | YFP fluorescence quenching (percent quench) (100 uM ach (acetylcholine)): 81.8% | YFP fluorescence quenching (percent quench) (1 mM ach (acetylcholine)): 71.22% | YFP fluorescence quenching (percent quench) (3 mM ach (acetylcholine)): 73.7% | YFP fluorescence quenching using Facinicline, 30 nM fac: 82.25 | YFP fluorescence quenching using Facinicline, 300 nM fac: 83.59 | YFP fluorescence quenching using Facinicline, 30 uM fac: 82.82 | YFP fluorescence quenching using TC-6987, 1 uM tc6987: 79.06 | YFP fluorescence quenching using TC-6987, 10 uM tc6987: 82.36 | YFP fluorescence quenching using TC-6987, 500 uM tc6987: 80.19 | YFP fluorescence quenching using Varenicline, 3 nM var (first column): 3.093 | YFP fluorescence quenching using Varenicline, 3 nM var (second column): 12.327 | YFP fluorescence quenching using Varenicline, 30 nM var (first column): 77.097 | YFP fluorescence quenching using Varenicline, 30 nM var (second column): 77.653 | YFP fluorescence quenching using Varenicline, 300 nM var (first column): 79.446 | YFP fluorescence quenching using Varenicline, 300 nM var (second column): 79.998 | YFP fluorescence quenching using Varenicline, 500 nM var (first column): 80.691 | YFP fluorescence quenching using Varenicline, 500 nM var (second column): 80.309 | YFP fluorescence quenching using Varenicline, 1 uM var (first column): 80.258 | YFP fluorescence quenching using Varenicline, 1 uM var (second column): 79.509
